In patent publication US20020115613A1, “Treatment of prostate cancer” (priority 2001, published 2002):

How the values were obtained:
Assay type in all cases: cell-based
[1] = system: LNCaP C4-2 cells; assay: MTT assay (cell survival); settings: for cell survival: 400 ng/ml TRAIL and/or 10 μM Mifepristone for three days, FIG. 1B
Protocol: (§1) LNCaP were obtained from American Type Culture Collection (Rockville, Md.) and LNCaP C4-2 cells were purchased from Urocor Inc., Oklahoma City, Okla. Cells were grown in RPMI 1640 medium supplemented with 10% (LNCaP) or 5% (LNCaP C4-2) fetal bovine serum (Hyclone, Logan, Utah) and grown in the presence of 5% CO2 at 37° C. Cells were treated with 10 μM Mifepristone (Sigma, St. Louis, Mo.) for three days or with increasing concentrations (from 200 ng/ml to 600 ng/ml) of TRAIL (Biomol Research Laboratories, Inc., Plymouth Meetings, Pa.) for varying time intervals 2, 4, 6, 8, 16, 20 and 24 hours (hr). Thus, for treatment with Mifepristone, cells were treated with Mifepristone for three days and then some cells treated (without washing) with TRAIL for indicated periods. Upon completion of the experiment, cells were harvested, and total proteins, cytosol or mitochondrial fractions were isolated as described below. At least three experiments were conducted with a minimum of four plates per treatment per experiment. Two methods were used to measure induction of apoptosis by drug treatment: the MTT assay and the Apoptosense assay. The MTT assay measures mitochondrial enzyme activity and is indicative of the number of surviving cells. […] Cells were seeded in 96-well plates (6000 cells/well) and treatment was started 24 hr after seeding the cells. After completion of the treatment, cells were incubated at 37° C. with the MTT reagent for 3 hr and processed according to manufacturers instructions (Promega Corporation, Madison, Wis.). Color development was measured at 490 nm on a Spectra MAX 340 microplate reader (Molecular Devices, Menlo Park, Calif.).

[2] = system: LNCaP cells; assay: MTT assay (cell survival); settings: for cell survival: 400 ng/ml TRAIL and/or 10 μM Mifepristone for three days, FIG. 1A
Protocol: as §1

[3] = system: LNCaP C4-2 cells; assay: Caspase-9 colorimetric activity assay; settings: FIG. 4B
Protocol: (§2) LNCaP were obtained from American Type Culture Collection (Rockville, Md.) and LNCaP C4-2 cells were purchased from Urocor Inc., Oklahoma City, Okla. Cells were grown in RPMI 1640 medium supplemented with 10% (LNCaP) or 5% (LNCaP C4-2) fetal bovine serum (Hyclone, Logan, Utah) and grown in the presence of 5% CO2 at 37° C. Cells were treated with 10 μM Mifepristone (Sigma, St. Louis, Mo.) for three days or with increasing concentrations (from 200 ng/ml to 600 ng/ml) of TRAIL (Biomol Research Laboratories, Inc., Plymouth Meetings, Pa.) for varying time intervals 2, 4, 6, 8, 16, 20 and 24 hours (hr). Thus, for treatment with Mifepristone, cells were treated with Mifepristone for three days and then some cells treated (without washing) with TRAIL for indicated periods. Upon completion of the experiment, cells were harvested, and total proteins, cytosol or mitochondrial fractions were isolated as described below. At least three experiments were conducted with a minimum of four plates per treatment per experiment. As caspase-9 is a key protein in the formation of apoptosome, assays were performed to determine the activity of caspase-9. Caspase-9 activity was assayed using a colorimetric substrate, […] with a kit from Chemicon International, Inc. (Temecula, Calif.). Cleavage of the C-terminal peptide bond by the enzyme released p-nitroaniline, which was measured at 405 nm. Pure recombinant human caspase-9 was utilized as a positive control.

[4] = system: LNCaP cells; assay: Caspase-9 colorimetric activity assay; settings: FIG. 4A
Protocol: as §2

[5] = system: PC3Neo cells; assay: Induction of apoptosis / cell survival (FIG. 1E, 6A)
Protocol: Prostate cancer cell lines, PC3Neo and PC3AR were provided by Dr. K. Burnstein, University of Miami School of Medicine, Miami, Fla. PC3AR cells are a clonal cell line derived by stable transfection of PC3 with a full-length human AR cDNA (Dai, J. L., et al., Steroids, 61, 531-539, 1996). PC3Neo cells were stably transfected with neomycin vector alone. Cells were grown in RPMI 1640 with 5% FBS (Hyclone, Logan, Utah), 100 units/ml penicillin, 100 μg/ml streptomycin, 0.25 μg/ml fungizone and G418 (350 μg/ml) to select for neomycin-resistant cells. In experiments using antiandrogens, cells were maintained in 5% DCC stripped serum for at least 48 hr before treatment with hydroxyflutamide (Sigma Chemical Co., St. Louis, Mo.). The medium and all the drugs were replaced every two days. Cells were treated with 200 ng/ml, 400 ng/ml or 600 ng/ml of TRAIL (Biomol Research Laboratories, Inc, Plymouth Meeting, Pa.) for 2, 4, 6, 8, 16 and 20 hr. Cells were treated with 5 μM hydroxyflutamide for 5 days before the commencement of treatment with 400 ng/ml TRAIL.
Two methods were used to measure induction of apoptosis by drug treatment: the MTT assay and the Apoptosense assay. The MTT assay measures mitochondrial enzyme activity and is indicative of the number of surviving cells. The Apoptosense assay is an ELISA, which utilizes M30 antibody to recognize the C-terminal domain (amino acids 387-396) of cytokeratin 18 that is exposed in apoptotic cells after cleavage by caspases.
Cells were seeded in 96-well plates (6000 cells/well) and treatment was started 24 hr after seeding the cells. After completion of the treatment, cells were incubated at 37° C. with the MTT reagent for 3 hr and processed according to manufacturers instructions (Promega Corporation, Madison, Wis.). Color development was measured at 490 nm on a Spectra MAX 340 microplate reader (Molecular Devices, Menlo Park, Calif.).
To examine the role of NFκB in altered response to TRAIL, its function was blocked by over expressing mutated IκB protein (Kanegae, Y., et al., Nature 392, 611-614, 1998). […]

[6] = system: LNCaP C4-2 cells; assay: Western blotting of death receptors, caspases, Bid, cytochrome c, Akt; settings: 15 min, FIG. 8
[7] = 200 ng/ml TRAIL compared with 400 ng/ml, data not shown
[8] = 600 ng/ml TRAIL compared with 400 ng/ml, data not shown

Molecule | cell survival [1] | cell survival [2] | caspase-9 activity [3] | caspase-9 activity [4] | cell death at lower concentration of TRAIL [1, 7] | apoptosis at higher dose of TRAIL [1, 8] | cell death at lower concentration of TRAIL [2, 7] | apoptosis at higher dose of TRAIL [2, 8] | apoptotic response at 200 ng/ml ([5]; 200 ng/ml TRAIL) | death of cells (apoptosis) ([5]; 400 ng/ml TRAIL, by 20 hr, FIG. 1E) [%] | apoptosis at higher dose ([5]; 600 ng/ml TRAIL) | phosphorylated Akt [6]
CC#C[C@]1(O)CC[C@H]2[C@@H]3CCC4=CC(=O)CCC4=C3[C@@H](c3ccc(N(C)C)cc3)C[C@@]21C [Mifepristone] | little effect on survival | little effect on survival | induced caspase-9 activity | induced caspase-9 activity | – | – | – | – | – | – | – | –
Tumor necrosis factor α—Related Apoptosis Inducing Ligand (protein, UniProt P50591 1-281, looked up, 281 amino acid type II transmembrane protein of the tumor necrosis factor α family; purchased from Biomol) Tumor necrosis factor ligand …: MAMMEVQGGPSLGQTCVLIVIFTVLLQSLCVAVTYVYFTNELKQMQDKYSKSGIACFLKEDDSYWDPNDEESMNSPCWQVKWQLRQLVRKMILRTSEETISTVQEKQQNISPLVRERGPQRVAAHITGTRGRSNTLSSPNSKNEKALGRKINSWESSRSGHSFLSNLHLRNGELVIHEKGFYYIYSQTYFRFQEEIKENTKNDKQMVQYIYKYTSYPDPILLMKSARNSCWSKDAEYGLYSIYQGGIFELKENDRIFVSVTNEHLIDMDHEASFFGAFLVG | reduced cell survival as early as 8 hr | did not alter cell survival significantly | induced caspase-9 activity | induced caspase-9 activity | lower cell death | did not increase apoptosis significantly | lower cell death | did not increase apoptosis significantly | lower response | ~18 | did not significantly increase apoptosis | slightly decreased phosphorylated Akt
